Measurements as given in article PMC2561144 (Journal of Experimental Botany, 2008).

B1: His6-AtRabC2a (natural protein)
chain: MGSSSGQSGYDLSFKILLIGDSGVGKSSLLVSFISSSVEDLAPTIGVDFKIKQLTVGGKRLKLTIWDTAGQERFRTLTSSYYRGAQGIILVYDVTRRETFTNLVDVWGKEIELYSTNQECVRMLVGNKVDRESERGVSREEGIALAKELNCMFLECSARTRQNVEQCFEELALKIMEVPSLLEEGSSAVKRNILKQKPEHQTNTQSGCCS
B2: His6-AtRabD1 (natural protein)
chain: not shown

Assays:
[1] = target: T1, MYA2 tail 1, aa1049-aa1505, fused with GST (Arabidopsis thaliana, UniProt Q9LKB9 1049-1505); experiment: pull-down
T1 sequence: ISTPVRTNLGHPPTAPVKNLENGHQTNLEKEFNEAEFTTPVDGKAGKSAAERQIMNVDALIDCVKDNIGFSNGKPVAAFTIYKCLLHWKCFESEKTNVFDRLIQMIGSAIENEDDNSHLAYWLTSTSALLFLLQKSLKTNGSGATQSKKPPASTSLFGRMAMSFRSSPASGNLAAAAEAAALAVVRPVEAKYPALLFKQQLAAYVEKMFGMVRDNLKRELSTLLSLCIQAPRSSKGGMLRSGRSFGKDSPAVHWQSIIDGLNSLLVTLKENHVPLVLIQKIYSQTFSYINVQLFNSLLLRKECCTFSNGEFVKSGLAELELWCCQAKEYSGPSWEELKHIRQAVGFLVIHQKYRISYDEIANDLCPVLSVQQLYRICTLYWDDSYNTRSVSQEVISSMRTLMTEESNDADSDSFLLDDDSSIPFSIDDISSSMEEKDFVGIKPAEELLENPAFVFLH

[2] = target: T2, MYA2 tail 2, aa1049-aa1450, fused with GST (Arabidopsis thaliana, UniProt Q9LKB9 1049-1450); experiment: pull-down
T2 sequence: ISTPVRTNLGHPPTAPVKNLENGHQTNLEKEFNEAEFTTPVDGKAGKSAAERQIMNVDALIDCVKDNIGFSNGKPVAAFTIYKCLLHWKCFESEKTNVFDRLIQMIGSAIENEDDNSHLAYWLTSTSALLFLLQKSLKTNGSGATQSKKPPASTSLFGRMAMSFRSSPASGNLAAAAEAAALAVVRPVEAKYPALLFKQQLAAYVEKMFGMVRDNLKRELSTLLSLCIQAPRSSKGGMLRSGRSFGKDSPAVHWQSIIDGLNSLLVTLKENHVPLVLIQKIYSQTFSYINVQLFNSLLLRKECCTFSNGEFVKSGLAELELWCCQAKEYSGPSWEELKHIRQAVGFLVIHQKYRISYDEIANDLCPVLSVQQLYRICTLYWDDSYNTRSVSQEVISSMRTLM

Binder | fold amount bound with GTP over that without GTP or on control beads [1] [fold] | fold amount bound with GTP over that without GTP or on control beads [2] [fold]
B1 | 1.7 | –
B2 | 2.6 | 1.6
